Reference: patent US20220251167A1 (published 2022)

Target: T1, DNAJB1-PRKACA fusion protein peptide on HLA-A*68:02 (human)
T1 peptide: EIFDRYGEEV
Assay: multimer staining
Excerpt: Jurkat cells were engineered to express the FLC-P8R-4 TCR.

binding result: recognises
B1: P9R-4 (TCR)
alpha TRAV16*01 TRAJ4*01 CDR3: CALDMFSGGYNKLIF
beta TRBV15*01 TRBJ2-7*01 CDR3: CATSRVKTSGGYEQYF
